Reference: patent US20240092930A1 (MABWELL SHANGHAI BIOSCIENCE, published 2024)

Tests used:
[1] = target: T1, human Trop-2 on the surface of cells (CHO/Trop-2 cells; BxPC-3 cells; NCI-N87 cells) (human, UniProt P09758 27-323); assay: cell-based or functional assay
T1 sequence (looked up): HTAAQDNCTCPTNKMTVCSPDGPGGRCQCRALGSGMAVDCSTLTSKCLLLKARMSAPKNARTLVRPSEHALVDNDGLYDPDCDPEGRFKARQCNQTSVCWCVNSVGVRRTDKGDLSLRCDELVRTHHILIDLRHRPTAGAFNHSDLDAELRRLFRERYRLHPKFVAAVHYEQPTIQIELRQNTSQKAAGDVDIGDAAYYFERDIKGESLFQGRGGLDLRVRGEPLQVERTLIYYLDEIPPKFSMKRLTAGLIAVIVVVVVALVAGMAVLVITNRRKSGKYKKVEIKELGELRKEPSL

[2] = target: T2, recombinant human Trop-2-his protein (ACCESSION NO.: NP_002344.2, AA 1-274) (human, UniProt P09758 27-274); assay: BLI, antibody on AHC sensor, Trop-2-his 60 nM
T2 construct: range 27-274; also called recombinant human Trop-2 protein; recombinant human Trop-2 extracellular domain; not shown: his tag
T2 sequence (looked up): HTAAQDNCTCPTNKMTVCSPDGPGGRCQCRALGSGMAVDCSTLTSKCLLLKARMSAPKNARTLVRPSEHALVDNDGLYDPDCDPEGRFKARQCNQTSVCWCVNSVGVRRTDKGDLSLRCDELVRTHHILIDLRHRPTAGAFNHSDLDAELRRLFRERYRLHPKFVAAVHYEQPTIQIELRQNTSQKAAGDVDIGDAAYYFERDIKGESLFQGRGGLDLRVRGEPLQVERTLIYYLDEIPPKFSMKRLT
Procedure, shortened: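 Humanized antibodies at 4 μg/ml in PBS captured via Fc on anti-human IgG Fc (AHC) biosensors for 120 s; 60 nM Trop-2-his (AA 1-274) as analyte, 100 s association, 300 s dissociation. Blank-subtracted responses fitted to 1:1 Langmuir model for kinetic constants.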

[3] = target: T2, recombinant human Trop-2-his protein …; assay: ELISA, coated Trop-2-his 0.2 µg/ml
Procedure: Plates were coated with recombinant human Trop-2-his protein (ACCESSION NO.: NP_002344.2, AA 1-274) at a concentration of 0.2 μg/ml overnight at 4° C. and then blocked with 5% BSA for 60 min in a constant temperature incubator at 37° C. Chimeric antibodies ch3-11, ch4-3, ch17-1, ch11-4, and ch23-12 and control antibody Sacituzumab (serial dilutions of 8 concentrations in total obtained through 3-fold serially diluting a solution with an initial concentration of 2 μg/ml) were added into the plates which were then incubated in a constant temperature incubator at 37° C. for 60 min. The plates were washed with PBST 4 times, and 1:5000 dilution of HRP-anti-human Fc (Cat.: 109-035-098, Jackson ImmunoResearch) was added into the plates for reaction for 45 min. TMB (Cat.: ME142, GalaxyBio, Beijing) substrate was added for color development for 15 min, and then 2M HCl was added to stop reaction. Absorbances at 450 nm and at 630 nm (as reference wavelength) were read, and A450 nm-630 nm values of the wells in the plates were recorded.

- Internalization percentage (%), 1 h, BxPC-3 cells, FACS [1]: 17.2%
- Internalization percentage (%), 3 h, BxPC-3 cells, FACS [1]: 21.8%
- Internalization percentage (%), 5 h, BxPC-3 cells, FACS [1]: 20.4%
- Kd [2]: 0.723 nM
- EC50 [3]: 0.271 nM
B1: Sacituzumab (antibody, human IgG1, kappa, V domains shown)
VH: QVQLQQSGSELKKPGASVKVSCKASGYTFTNYGMNWVKQAPGQGLKWMGWINTYTGEPTYTDDFKGRFAFSLDTSVSTAYLQISSLKADDTAVYFCARGGFGSSYWYFDVWGQGSLVTVSS
VL: DIQLTQSPSSLSASVGDRVSITCKASQDVSIAVAWYQQKPGKAPKLLIYSASYRYTGVPDRFSGSGSGTDFTLTISSLQPEDFAVYYCQQHYITPLTFGAGTKVEIKR
notes: expressed in HEK293; also called control antibody Sacituzumab; Saituzumab
